# Experimental data taken from the nanobody polyreactivity screen of Harvey et al. (2022).
# Assay: yeast display, Sf9 membrane polyspecificity reagent, FACS + sequencing; frameworks hold sequencing errors
# How it was run: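 Galactose-induced (36–48 hours) yeast carrying a synthetic nanobody display library were exposed to 10% biotinylated, detergent-solubilized Sf9 membrane reagent at 4 °C for 1 hour. FACS followed streptavidin microbead enrichment, using low and high (top ~1%) gates for expression (anti-HA) and reagent binding (streptavidin). Colony PCR, MiSeq 2 × 250 sequencing and CDR-length filtering followed. Labels for polyreactivity reflect the gate of origin.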
row,Sequence,polyreactivity (PSR sort gate)
1,QVQLVESGGGLVQAGGSLRLSCAATGSIISVNTMGWYRQAPGKERELVATIRTGDSTNYADSVKGRFTISRDNAKYTVYLQMNSLKPEDTAVYYCAAEWSSLNFDYWGQGTQVTVSS,low polyreactivity
2,QVQLVESGGGLVQAGGSLRLSCAASGSTFPKYAMGWYRQAPGKERELVASISVTTGSTYYADSVKGRFTISRDNAKNTVYLQMNSLKPEDTAVYYCAARRGWGDDYWGQGTQVTVSS,high polyreactivity
3,QVQLVESGGGLVQAGRTLRLSCAASGRTFVPYAMGWYRPAPGKERELVAAISYSGDSTYYADSVKGRFTISRDNAKNTVYLQMNRLKPEDTAVYYCAARGGYPFYYWGQGTQVTVSS,low polyreactivity
4,QVQLVETGGGLVHAGGSLRLSCAASGSIFDAYAMGWYRQAPGKERELFASITSGGRTNYADSVKGRFTISRDNAKNTVYLQMNSLKPEDTAVYYCAKVRTRATPGLDYYYWGQGTQVTVSS,high polyreactivity
5,QVQLVESGGGLVQAGGSLRLSCAASGFIIPYYAMGWYRQAPGKERELVAAISRSGGSTYYADSVKGRFTISRDNAKNTVYLQMHSLKPEDTAVYYCATRKGGTLYNYWGQGTQVTVSS,high polyreactivity
6,QVQLVESGGGLVQAGGSLRLSCAASGRTFDFYAMGWYRQAPGKERELVAGITSGDSTHYADSVKGRFTISRDNAKNTVYLQMNSLKPEDTAVYYCAADITWYDYAGSHIVEHDYWGQGTQVTVSS,low polyreactivity
7,QVQLVESGGGLVQAGGSLRLSCAASGRIFYNYGLGWYRQAPGKERELVARITTGGRTNYADSVKGRFTMSRDNAKNTVYLQMNSLKPEDTAVYYCNADGYHSRWYYYNYDYWGQGTQVTVSS,low polyreactivity
8,QVQLVESGRGLVQAGGSLPLSCAASGFIFRRYAMVWYRQAPGKERELVAGISRGGDSTYYADSVKGRFTISRDNAKNTVYLQMNSLKPEDTAVYFCAGQGRDSTPHGYWGQGTQVTVSS,high polyreactivity
9,QVHLVESGGGLVQAGGSLRLSCAATGLIFPRYAMGWSRQAPGKEREMVAAITRGGSTYYADSVKGRFTISRDNAKNTVYLQMYSLKPEDTAVYYCNADYSPSTWYLYYSLYYYWGQGTQVTVSS,low polyreactivity
10,QVQLVESGGGLVQAGGSLRISCAASGSIFRRYAMGWYSQAPGKERDLVATISSVTTTNYADSVKGRFTISRDNANNTVYLQMNSLKPEDTSVFYCAAVVYGQRRGPGQRKSYWGQGTQVTVSS,high polyreactivity
11,QVQLVESGGALVQAGGSLRLSCAASGNTFRGYTMGWYRQAPGKEREFVAAISWSGGRTNYADSVKGRFTISRDNAKNTVYLQMNSLTPEDTAVYYCGRDYRARRWGMDYWGQGTQVTVSS,high polyreactivity
12,QVQLVESGGGLVQAGGSLRLSCAASGRIFSYYAMGWYRQAPGKERELVATISGSGGSTYYADSVKGRFTISRDNAKNTVFLQMNSLKPEDTAVYYCAATGFIFRGRVRAIPRRYNYWGQGTQVTVSS,high polyreactivity
13,QVQLVESWGGLVQAGGSLRLSCAASGSTFIGYAMGWYRQAPGKERELVAAISWSGGSTYYADSVKGRFTISRDNAKNTVYLQMNSLKPEDTAVYYCAASQYVQGHKYYYWGQGTQVTVSS,high polyreactivity
14,QVQLVESGGGLVQAGGSLRISCAASGRIFYENTMGWYRQAPGKETELVAVITSTGNTNYADSVKGRFTISRDNAKNTVYLQMNSLKPEVTAVYYCAADSPPGGYVFPERPYDYWGQGTQVTVSS,low polyreactivity
15,QVQLVESGGGLVQAGGSLRLSCAASGRTLGVNAMGWYRQAPGKERELVAAISTRGTTTNYADSVKGRFTISRDNAKNTVYLQMNSLKPEDTAVYYCATRTYRTYPRYDYWGQGTQVTVSS,high polyreactivity
16,QVQLVESGGALVQAGGSLRLSCAASGFTFPPSARGWYRQAPGKERELVARITWSGDRTYYADSVKGRFTISRDNAKNTVYLQMNSLKPEDTAVYYCAARRLPRKERKLYYWGQGTQVTVSS,high polyreactivity
17,QVQLVESGGGFVQAGGSLRLSCAASGRIRFYAMGWYRQAPGKERELVAAISSSGGSTYYADSVKGSFTISRDNAKNTVYLQMNSLKPEDTAVYYCAAAWYYLGTRAQLYDYWGQGTQVTVSS,low polyreactivity
18,QVQLVESGGGLVQAGGSLRLSCAASGYIFDRYAMGWYRQAPGKERELVAAISGRGGSTYYADSVKGRFTISRDNAKNTVSLQMNSLKPEDTAVYYCARDVYVRNGQRARYDSWGQGTQVTVSS,high polyreactivity
19,QVQLVESGGGLVQAGGSLRLSCAASGLIFPVYDMAWYRQAPGKERELVAAITRSGDSTYYADSVKGRFTISRDNAKNTVYLQMNSLKPEDSGVYYCAAQPGTASYAGDGDSWGKGTQVTVSS,low polyreactivity
20,QVQLVESGGGLFQAGGSLRLSCAASGRIFGGYAMGWYRQAPGTERELVAAIDWDGGSTYYADSVKGRFTISRDNEKNTVYLQMNSLKPEDTAVYYSNAVKWTWWSSSGDYDYWGQGTQVTVSS,high polyreactivity
21,QVQLVESGGGLVQAVGSLRLSCAASGRTFDEYAMGWYRQAPGKERELVAAISTRGGSTYYADSVKGRFTISRDNAKNTVYLQMNSLKPEDTAVYYCAADYTKSSSPWPGYYWGQGTQVTVSS,high polyreactivity
22,QVQLVESGGGLVQAGGSLRLSCAASGFIFRYNAMGWYRQAPGKERELVAVITSGGRTYYADSVKGRFTISRDNAKNTVYLQMNSLKPEDTAVYYCNADSRHRRNYDYWGQGTQVTVSS,high polyreactivity

row,Sequence,polyreactivity (PSR sort gate)
1,QVQLVESGGGLVQAGGSLRLSCAASGSTLRYYAMGWYRQAPGKERELVAAISTGGSTYYADSVKVRFTISRDNAKNTVYLQMNSLKAEDTAVYYCAAEKKTKTYRYDYWGQGTQVTVSS,low polyreactivity
2,QVQLVESGAGLVQAGGSLRLCCAASGSIFAPYAMGWYRQAPGKERELVAAISRSGGSTYYADSVKGRFTISRDNAKNTVYLQMNSLKPEDTAVYYCADRNGLRQYRLDYWGQGTQVTVSS,high polyreactivity
3,QVQLVESGGGLVQAGGSLRLSCAASGRIFKYYAMGWYRQAPGKERELVAAISGTGGGTYYADSVKGRFTISRDNAKNTVYLQMNSLKPEDTAVYYCAALHQAYRGFDYWGQGTQVSVSS,high polyreactivity
4,QVQLVESGGGLVQAGGSLRLSCAASGFTFTSYAMGWYRQAPGKERELVAAITWDGGRTYYADSVKGRFTISRDNSKNTVYLQMNSLKPEDTAVYYCAKVYNPRQYDYWGQGTQVTVSS,low polyreactivity
5,QVQLVESGGGLVQAGGSLRLSCAASGIIFSGYVMGWYGQAPGKERELVAAISRSGGRTFYADSVKGRFTISRDNAMNTVYLQMNSLKPEDTAVYYCAKVPSYVRGHGYQYDHWGQGTQVTVSS,high polyreactivity
6,QVQLVESGGGLVQAGGSLRLSCAASGSTSYRYAMGWYRQAPGKQRELVAGITRSGGSTYYADSVKGRFTMSRDNAKNSVYLQMNSLKPEDTAVYYCAAYYSRQYVGYGYWGQGTQVTVSS,high polyreactivity
7,QVHLVESGGGLVQAGGSLRLSCAASGSIFYYYAMGWYRQAPGKEREFVAAINWSGGITYYADSVKGRFTISRDNAKNTVYLQMNSLKPEDTAVFYCAAPVRGYSYGKYDYWGQGTQVTVSS,high polyreactivity
8,QVQLVESGGGLVQAGGSLRLSCAASGRIFASYAMGWYRQAPGKERELVAAISAGGGSRTYYADSVKGRFTISRDNAKNTVYLQMNSLKPEDTAVYYCNTANSWLRQYYYWGQGTQVTVSS,high polyreactivity
9,QFQLVESGGGLVKAGGSLRLSCAASGLTNIYNARGWYRQAPGKERELVAAISGNGGDTYSADSVKGRFTISRDNAKNTVYLQMNSLKPEDTAVYYCAADYAYTPITWDEYWGQGTQVTVSS,low polyreactivity
10,QVQLVESGGGLVQAGGSLRLSCAASGIIFPVYAMGWFRQAPGKERELVATIDSGGGTYYADSVKGRFTISRDNANNTVYLQMNSLKPEDTAVYYCNASHPPKAELAHWGQGTQVTVSS,low polyreactivity
11,QVQLVESGGGLVQAGGSLRLSCASSGYIFEKYAMGWYRQAPGKERELVAAITVTGASTYYADSVKGRFTISRDNAKNTVYLQMNSMNPEDTAVYYCAAKTLSVGYVDPDYGRDYWGQGTQVTVSS,low polyreactivity
12,QVQLVESGGGLVQAGGTHRLSCSASGFIFCKYAMGWYRQAPGKERELVAVITRSGSRTYYADSVKGRFTISRDNAKNTVYLQMNSLKPEDTAVYYCATENVYAYDYWGQGTQVTVSS,high polyreactivity
13,QVQLVESGGGLVQAGGSLRLSCAASGSIFYYNTMGWYRQAPGKERELVAGISWGGGRTYYADSVKGRFTISRDNAKNTVYLQMNSLKPEDTAVYYCNARHRRLPSNGGYDYWGQGTQVTVSS,high polyreactivity
14,QVQLVESGGGLVQAGGSLRLTCAASGRTFNPYAMGWYRQAPGKERELVARIRGTGVSTYYADSVKGRFTISRDYAKNTVYLQMNSLKPEDTDVYYINAVATPVSDRWSYLSHGWYYYWGHGTQVTVSS,high polyreactivity
15,QVQLVESGGGLVQAGGSLRLSCAASGSIFSINAMGWYRQAPGKERELVAVISWIGGNTYYADSVKGRFTISRDNAKNTVYLKMNSLKPEDTAVYYCAVATGPVSYRRYYCGQGTQVTVSS,high polyreactivity
16,QVQLVESGGGLLQAGGSLRLSCAASGFTIQRYAMGWYRQAPGKERELVAAITSGGSTYYADSVKGRFTISRDNAKNTVYLQMNSLKPEDTAVYYCATRAVWSSWGRRYDSWGQGTQVTVSS,high polyreactivity
17,QVQLVESGGGLVQAGGSLRLSCAASGSIIVPYAMGWYRQAPGKERELVAAISSRGGRTYYADSVKGRFTISRDNAKNTVYLQMNSLKPEDTAVYYCNKTAGSHIPRLEYWGQGTQVTVSS,low polyreactivity
18,QVQLVESGGGLVQAGGSLRLSCAASGFIFGYNAMGWYRQSPGKERELVAAISTRGGSTYYADSVKGRFTISRDNAKNTVYLQMNSLKPEDTAVYYCNKVTRVPFDSWGQGTQVTVSS,high polyreactivity
19,QVQHVESGGGLVQAGGSLRLSCAASGSTFRRYAMGWYRQAPGKERELVASITYRGGSTYYADSVKGRFTISRDNAKNTVYLQKNSLKPEDTAVYYCSKKGVYGPLIEYWAQGTQVTVSS,high polyreactivity
20,QVQLVESGGGLVKAGGSLRLTCAASGRIFGPYVMGWYRQAPGKERELVAAISTSGTSTYYADSVKGRFTISRDNAKNTVYLQMNSLKPEDTAVYYCAKRSGARHRLMDYWGQGTQVTVSS,low polyreactivity
21,QVQLVESGGGLVQAGGSLRLSCAASGSIFWYYVMGWYRQAPGKERELVAAITFSGAGTYYADSVKGRFTISRDNAKNTVYLQMNSLKPEDTAVYYCAARWLGHFYPFFLQGLSGFDYWGQGTQVTVSS,low polyreactivity
